B1: Recombinant SIG-F (mouse equivalent of human SIG-8) Fc-fusion protein (R&D Systems) (Fc fusion)
chain: TDGYSLSVTGSVTVQEGLCVFVACQVQYPNSKGPVFGYWFREGANIFSGSPVATNDPQRSVLKEAQGRFYLMGKENSHNCSLDIRDAQKIDTGTYFFRLDGSVKYSFQKSMLSVLVIALTEVPNIQVTSTLVSGNSTKLLCSVPWACEQGTPPIFSWMSSALTSLGHRTTLSSELNLTPRPQDNGTNLTCQVNLPGTGVTVERTQQLSVIYAPQKMTIRVSWGDDTGTKVLQSGASLQIQEGESLSLVCMADSNPPAVLSWERPTQKPFQLSTPAELQLPRAELEDQGKYICQAQNSQGAQTASVSLSIRSLLQLLGPSCSFEGQGLHCSCSSRAWPAPSLRWRLGEGVLEGNSSNGSFTVKSSSAGQWANSSLILSMEFSSNHRLSCEAWSDNRVQRATILLVSGPKVSQAGKSETSRGTVL
notes: Bought from R&D Systems; not shown: Fc part of the bought fusion protein
B2: Recombinant SIG-10 Fc-fusion protein (R&D Systems) (Fc fusion, human, UniProt Q96LC7 17-546, looked up)
chain: MDGRFWIRVQESVMVPEGLCISVPCSFSYPRQDWTGSTPAYGYWFKAVTETTKGAPVATNHQSREVEMSTRGRFQLTGDPAKGNCSLVIRDAQMQDESQYFFRVERGSYVRYNFMNDGFFLKVTALTQKPDVYIPETLEPGQPVTVICVFNWAFEECPPPSFSWTGAALSSQGTKPTTSHFSVLSFTPRPQDHNTDLTCHVDFSRKGVSAQRTVRLRVAYAPRDLVISISRDNTPALEPQPQGNVPYLEAQKGQFLRLLCAADSQPPATLSWVLQNRVLSSSHPWGPRPLGLELPGVKAGDSGRYTCRAENRLGSQQRALDLSVQYPPENLRVMVSQANRTVLENLGNGTSLPVLEGQSLCLVCVTHSSPPARLSWTQRGQVLSPSQPSDPGVLELPRVQVEHEGEFTCHARHPLGSQHVSLSLSVHYSPKLLGPSCSWEAEGLHCSCSSQASPAPSLRWWLGEELLEGNSSQDSFEVTPSSAGPWANSSLSLHGGLSSGLRLRCEAWNVHGAQSGSILQLPDKKGLIST
notes: Bought from R&D Systems; Held on the plate by protein A; not shown: Fc part of the bought fusion protein

Assay [1] concerns the target T1, Seq11 (recombinant vWF fragment AA 1-505 of SEQ ID NO: 1 with C-terminal Strep-Tag, from HEK 293) (human, UniProt P04275 764-1268, four O-glycosylation sites 485, 492, 493, 500 occupied (core 1, core 2 and/or extended core 1, sialylated)).
T1 construct: Expressed in HEK293 / MEXi-293 cells, purified on Strep-Tactin; not shown: C-terminal Twin-Strep-tag of the pDSG vector (IBA)
Kind of assay: SIGLEC ELISA, Scatchard analysis of the binding curve (apparent KD); printed SIGLEC 8, ELISA done as in Examples 8 and 9 with SIG-F.

Assay [2] deals with T2, vWF C-terminal fragment (V8 protease digest of plasma derived vWF) (human, UniProt P04275 2129-2813, biotinylated with EZ-Link Sulfo-NHS-Biotin).
T2 construct: the real molecule is only its C-terminal part; also called C-terminal vWF fragment
As to the kind of experiment: ELISA: SIGLEC-Fc captured on a protein A plate (500 ng/well), biotinylated vWF fragment at 1 µg/mL, streptavidin-HRP, A492, single concentration; sheet says Siglec 8, legend says SIG-F. In general terms: In an ELISA, binding on a coated surface is turned into a signal by an enzyme label.

The target of assay [3] is T3, Plasma derived VWF (pdVWF), biotinylated (human, UniProt P04275 764-2813, biotinylated with EZ-Link Sulfo-NHS-Biotin; natural N- and O-glycans of plasma vWF).
T3 construct: Plasma-derived multimeric glycoprotein; also called von Willebrand factor; full length vWF
As to the kind of experiment: ELISA: SIGLEC-Fc captured on a protein A plate (500 ng/well), biotinylated plasma derived vWF 0-0.8 µg/mL, streptavidin-HRP, A492.

For assay [4], the target named is T4, Recombinant SIG-5 Fc-fusion protein (R&D Systems) (human, UniProt O15389 17-434, limits assumed).
T4 construct: Bought from R&D Systems; Held on the plate by protein A; also called SIGLEC 5; not shown: Fc part of the bought fusion protein
T4 sequence (looked up): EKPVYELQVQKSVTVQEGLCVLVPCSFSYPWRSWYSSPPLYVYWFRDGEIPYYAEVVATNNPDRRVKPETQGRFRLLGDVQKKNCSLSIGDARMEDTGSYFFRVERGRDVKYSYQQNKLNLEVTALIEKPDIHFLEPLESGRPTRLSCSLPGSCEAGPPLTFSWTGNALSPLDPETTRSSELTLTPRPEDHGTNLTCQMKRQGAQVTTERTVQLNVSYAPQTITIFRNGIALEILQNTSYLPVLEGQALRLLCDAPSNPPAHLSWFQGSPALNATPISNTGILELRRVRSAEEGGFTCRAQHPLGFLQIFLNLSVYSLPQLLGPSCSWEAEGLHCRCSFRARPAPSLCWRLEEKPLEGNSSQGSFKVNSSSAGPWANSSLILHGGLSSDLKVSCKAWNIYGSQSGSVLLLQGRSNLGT
As to the kind of experiment: ELISA: SIGLEC-Fc captured on a protein A plate (500 ng/well), biotinylated cluster fragment at 4 µg/mL, streptavidin-HRP, A492, single concentration.

Assay [5] deals with T5, Recombinant SIG-7 Fc-fusion protein (R&D Systems) (human, UniProt Q9Y286 19-357, limits assumed).
T5 construct: Bought from R&D Systems; Held on the plate by protein A; also called SIGLEC 7; not shown: Fc part of the bought fusion protein
The description is as above.

For assay [6], the target named is T6, Recombinant SIG-9 Fc-fusion protein (R&D Systems) (human, UniProt Q9Y336 18-348).
T6 construct: Bought from R&D Systems; Held on the plate by protein A; also called SIGLEC 9; not shown: Fc part of the bought fusion protein
The description is as above.

The target of assay [7] is B2. The assay is described as above.
Assay [8] concerns the target B1. Kind of assay: ELISA: SIGLEC-Fc captured on a protein A plate (500 ng/well), biotinylated cluster fragment at 4 µg/mL, streptavidin-HRP, A492, single concentration; sheet says Siglec 8, legend says SIG-F.

T3 sequence (P04275 764-2813 limits assumed): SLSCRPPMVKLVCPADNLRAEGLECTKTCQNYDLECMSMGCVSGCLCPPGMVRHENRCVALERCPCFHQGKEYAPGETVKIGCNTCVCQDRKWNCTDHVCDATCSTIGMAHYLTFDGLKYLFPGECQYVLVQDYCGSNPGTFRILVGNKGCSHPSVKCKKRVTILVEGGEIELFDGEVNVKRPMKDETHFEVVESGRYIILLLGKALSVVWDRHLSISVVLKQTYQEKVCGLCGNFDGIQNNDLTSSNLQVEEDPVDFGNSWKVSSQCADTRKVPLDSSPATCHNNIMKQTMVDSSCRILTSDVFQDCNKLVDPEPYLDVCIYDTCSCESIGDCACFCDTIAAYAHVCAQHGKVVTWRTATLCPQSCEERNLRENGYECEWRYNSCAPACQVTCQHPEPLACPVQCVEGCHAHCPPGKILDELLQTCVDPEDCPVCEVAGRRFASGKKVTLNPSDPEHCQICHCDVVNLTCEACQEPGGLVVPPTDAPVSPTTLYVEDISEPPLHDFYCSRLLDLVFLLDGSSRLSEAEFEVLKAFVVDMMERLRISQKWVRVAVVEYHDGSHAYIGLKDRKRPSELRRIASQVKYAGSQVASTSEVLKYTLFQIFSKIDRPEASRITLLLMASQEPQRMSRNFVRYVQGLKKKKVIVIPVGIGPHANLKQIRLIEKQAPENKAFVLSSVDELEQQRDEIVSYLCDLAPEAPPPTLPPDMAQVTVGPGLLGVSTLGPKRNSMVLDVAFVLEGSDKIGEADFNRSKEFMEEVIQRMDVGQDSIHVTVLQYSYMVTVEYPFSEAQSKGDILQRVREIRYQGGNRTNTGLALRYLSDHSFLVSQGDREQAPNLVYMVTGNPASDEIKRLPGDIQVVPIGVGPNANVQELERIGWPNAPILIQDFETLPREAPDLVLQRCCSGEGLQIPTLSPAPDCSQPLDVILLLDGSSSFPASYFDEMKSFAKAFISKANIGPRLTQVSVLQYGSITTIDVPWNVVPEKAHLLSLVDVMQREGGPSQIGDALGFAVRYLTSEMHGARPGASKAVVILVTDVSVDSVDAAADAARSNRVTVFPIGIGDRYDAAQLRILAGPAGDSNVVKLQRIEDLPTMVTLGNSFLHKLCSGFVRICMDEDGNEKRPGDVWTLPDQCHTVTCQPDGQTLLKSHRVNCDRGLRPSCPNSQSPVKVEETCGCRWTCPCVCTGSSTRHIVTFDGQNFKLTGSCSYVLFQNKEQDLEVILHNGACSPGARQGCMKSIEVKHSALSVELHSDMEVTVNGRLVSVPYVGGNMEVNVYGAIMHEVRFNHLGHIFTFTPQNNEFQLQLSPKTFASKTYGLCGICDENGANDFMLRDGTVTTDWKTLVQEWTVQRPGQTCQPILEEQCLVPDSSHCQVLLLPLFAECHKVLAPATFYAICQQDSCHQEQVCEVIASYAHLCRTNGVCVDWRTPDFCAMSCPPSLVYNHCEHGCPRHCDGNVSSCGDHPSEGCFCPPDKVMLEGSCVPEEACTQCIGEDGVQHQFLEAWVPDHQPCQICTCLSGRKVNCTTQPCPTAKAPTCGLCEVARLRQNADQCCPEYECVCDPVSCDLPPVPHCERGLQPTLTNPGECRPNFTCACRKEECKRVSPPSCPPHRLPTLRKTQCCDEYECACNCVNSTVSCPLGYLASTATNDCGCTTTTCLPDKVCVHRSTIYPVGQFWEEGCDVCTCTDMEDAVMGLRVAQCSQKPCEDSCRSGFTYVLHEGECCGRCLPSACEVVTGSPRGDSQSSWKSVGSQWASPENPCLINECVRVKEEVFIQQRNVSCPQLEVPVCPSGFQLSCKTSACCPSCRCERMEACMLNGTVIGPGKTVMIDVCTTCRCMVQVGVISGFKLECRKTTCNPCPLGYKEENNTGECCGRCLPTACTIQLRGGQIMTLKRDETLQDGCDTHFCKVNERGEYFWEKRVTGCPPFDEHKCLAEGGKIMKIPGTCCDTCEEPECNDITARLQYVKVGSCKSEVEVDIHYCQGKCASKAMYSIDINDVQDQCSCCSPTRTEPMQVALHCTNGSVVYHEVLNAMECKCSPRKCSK
T1 sequence (P04275 764-1268): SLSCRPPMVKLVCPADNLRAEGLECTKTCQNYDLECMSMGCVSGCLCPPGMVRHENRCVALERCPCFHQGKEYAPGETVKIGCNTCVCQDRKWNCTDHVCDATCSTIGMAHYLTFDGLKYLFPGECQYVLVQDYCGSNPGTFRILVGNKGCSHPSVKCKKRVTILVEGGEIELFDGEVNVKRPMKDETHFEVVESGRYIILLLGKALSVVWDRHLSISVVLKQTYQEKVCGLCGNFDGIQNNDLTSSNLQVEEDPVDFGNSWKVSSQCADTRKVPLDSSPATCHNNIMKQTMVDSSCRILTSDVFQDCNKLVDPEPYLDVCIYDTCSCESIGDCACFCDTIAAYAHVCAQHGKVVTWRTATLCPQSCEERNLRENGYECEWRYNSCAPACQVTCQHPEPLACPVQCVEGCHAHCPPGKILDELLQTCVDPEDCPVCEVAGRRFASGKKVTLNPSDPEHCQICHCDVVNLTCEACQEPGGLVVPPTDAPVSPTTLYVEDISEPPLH
T2 sequence (P04275 2129-2813 limits assumed): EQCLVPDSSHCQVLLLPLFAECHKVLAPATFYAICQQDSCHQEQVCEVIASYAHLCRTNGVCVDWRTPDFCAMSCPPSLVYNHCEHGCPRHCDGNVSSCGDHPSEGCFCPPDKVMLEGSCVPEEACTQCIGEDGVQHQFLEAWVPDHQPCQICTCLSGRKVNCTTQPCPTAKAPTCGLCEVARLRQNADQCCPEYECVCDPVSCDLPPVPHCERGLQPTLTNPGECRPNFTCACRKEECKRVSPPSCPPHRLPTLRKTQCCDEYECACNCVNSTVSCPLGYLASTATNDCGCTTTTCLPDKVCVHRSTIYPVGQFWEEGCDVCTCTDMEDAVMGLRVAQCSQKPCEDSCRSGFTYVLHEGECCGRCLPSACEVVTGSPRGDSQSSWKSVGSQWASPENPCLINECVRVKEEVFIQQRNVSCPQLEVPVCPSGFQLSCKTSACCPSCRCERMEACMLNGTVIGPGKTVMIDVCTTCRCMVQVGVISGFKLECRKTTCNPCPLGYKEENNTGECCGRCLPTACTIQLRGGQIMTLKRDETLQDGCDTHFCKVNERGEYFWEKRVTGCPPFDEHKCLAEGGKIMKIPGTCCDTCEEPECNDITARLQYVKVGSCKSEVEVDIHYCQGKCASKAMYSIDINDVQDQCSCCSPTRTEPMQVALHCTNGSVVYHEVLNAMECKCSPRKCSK
T6 sequence (Q9Y336 18-348 limits assumed): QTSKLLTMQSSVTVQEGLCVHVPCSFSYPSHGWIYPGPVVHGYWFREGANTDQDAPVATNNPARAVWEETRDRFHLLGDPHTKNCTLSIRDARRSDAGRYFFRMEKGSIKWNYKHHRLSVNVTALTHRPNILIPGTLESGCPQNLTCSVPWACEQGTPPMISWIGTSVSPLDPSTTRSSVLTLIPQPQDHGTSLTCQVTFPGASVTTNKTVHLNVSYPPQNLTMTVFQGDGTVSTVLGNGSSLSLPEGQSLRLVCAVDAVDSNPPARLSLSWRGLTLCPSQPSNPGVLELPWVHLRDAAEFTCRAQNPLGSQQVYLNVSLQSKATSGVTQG
T5 sequence (Q9Y286 19-357 limits assumed): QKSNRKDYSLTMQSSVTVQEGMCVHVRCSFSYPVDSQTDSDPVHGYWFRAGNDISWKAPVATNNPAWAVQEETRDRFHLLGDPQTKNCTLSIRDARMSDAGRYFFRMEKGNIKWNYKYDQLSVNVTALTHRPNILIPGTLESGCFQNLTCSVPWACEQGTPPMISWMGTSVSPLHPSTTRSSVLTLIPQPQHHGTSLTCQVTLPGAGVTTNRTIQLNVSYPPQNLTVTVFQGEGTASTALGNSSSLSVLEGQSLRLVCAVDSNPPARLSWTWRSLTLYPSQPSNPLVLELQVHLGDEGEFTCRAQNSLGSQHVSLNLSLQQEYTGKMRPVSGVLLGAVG

Turning to B1, the Kd in assay [1] was found to be 1.03 µM. Further, the binding result in assay [2] is “no binding (tested: 1 µg/mL)”.
Turning to B2, the binding result in assay [3] was “no binding (tested: 0.8 µg/mL)”.

B3: Cluster 1 fragment (tryptic glycopeptide of plasma derived vWF, AA 449 to 511) (peptide)
peptide: VTLNPSDPEHC(Maleimide‑PEG2‑Biotin)QIC(Maleimide‑PEG2‑Biotin)HC(Maleimide‑PEG2‑Biotin)DVVNLTC(Maleimide‑PEG2‑Biotin)EAC(Maleimide‑PEG2‑Biotin)QEPGGLVVPPTDAPVSPTTLYVEDISEPPLHDFYC(Maleimide‑PEG2‑Biotin)SR
modifications: also: natural O-glycans (sialylated core 2), sites not given here
notes: also called Cluster I; O-glycosylation Cluster I
For B3, the binding result in assay [4], in assay [5], in assay [6], in assay [7] and in assay [8] was “no binding (tested: 4 µg/mL)” in each case.

The values above are taken from patent US20210275644A1 (OCTAPHARMA, published 2021).
